Results as given in patent publication US20100015129A1.

Assays:
[1] = molecular target: latent TGF-β1 released by human OA cartilage explants (human) (UniProt P01137); assay: cell-based or functional assay
[2] = molecular target: integrin αvβ3 on chick embryo sternal chondrocytes (chick) (UniProt P26008); assay: cell-based or functional assay
Sequence of integrin αvβ3 on chick embryo sternal chondrocytes (chick) (P26008 20-1034): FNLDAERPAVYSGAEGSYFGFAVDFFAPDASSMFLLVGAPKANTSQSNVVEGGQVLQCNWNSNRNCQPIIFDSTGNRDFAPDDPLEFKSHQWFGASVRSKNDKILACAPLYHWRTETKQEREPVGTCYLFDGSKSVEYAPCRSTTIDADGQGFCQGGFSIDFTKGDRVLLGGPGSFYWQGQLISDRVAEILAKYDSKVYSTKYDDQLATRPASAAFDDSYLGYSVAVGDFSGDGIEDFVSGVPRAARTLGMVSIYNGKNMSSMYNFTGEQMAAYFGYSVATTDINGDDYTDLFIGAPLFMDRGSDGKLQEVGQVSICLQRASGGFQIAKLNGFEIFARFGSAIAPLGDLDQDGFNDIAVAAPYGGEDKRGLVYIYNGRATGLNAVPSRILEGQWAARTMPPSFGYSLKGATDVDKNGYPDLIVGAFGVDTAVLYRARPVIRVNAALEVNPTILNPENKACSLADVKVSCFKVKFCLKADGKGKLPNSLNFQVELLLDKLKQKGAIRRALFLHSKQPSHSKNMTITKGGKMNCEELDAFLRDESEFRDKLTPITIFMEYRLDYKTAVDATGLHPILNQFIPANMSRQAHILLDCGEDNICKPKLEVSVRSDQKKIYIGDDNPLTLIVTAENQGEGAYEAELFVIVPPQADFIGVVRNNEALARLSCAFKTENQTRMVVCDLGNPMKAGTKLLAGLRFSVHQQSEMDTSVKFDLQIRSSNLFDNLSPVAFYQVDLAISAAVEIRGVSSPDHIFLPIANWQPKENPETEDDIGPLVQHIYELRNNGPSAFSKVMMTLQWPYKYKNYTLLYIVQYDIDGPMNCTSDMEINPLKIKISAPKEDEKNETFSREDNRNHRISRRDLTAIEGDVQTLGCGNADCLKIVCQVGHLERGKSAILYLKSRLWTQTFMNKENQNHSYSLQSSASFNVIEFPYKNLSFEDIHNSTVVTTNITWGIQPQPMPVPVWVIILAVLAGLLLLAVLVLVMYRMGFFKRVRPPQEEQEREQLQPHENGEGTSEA

Sequence of latent TGF-β1 released by human OA cartilage explants (human) (P01137 30-390 limits assumed): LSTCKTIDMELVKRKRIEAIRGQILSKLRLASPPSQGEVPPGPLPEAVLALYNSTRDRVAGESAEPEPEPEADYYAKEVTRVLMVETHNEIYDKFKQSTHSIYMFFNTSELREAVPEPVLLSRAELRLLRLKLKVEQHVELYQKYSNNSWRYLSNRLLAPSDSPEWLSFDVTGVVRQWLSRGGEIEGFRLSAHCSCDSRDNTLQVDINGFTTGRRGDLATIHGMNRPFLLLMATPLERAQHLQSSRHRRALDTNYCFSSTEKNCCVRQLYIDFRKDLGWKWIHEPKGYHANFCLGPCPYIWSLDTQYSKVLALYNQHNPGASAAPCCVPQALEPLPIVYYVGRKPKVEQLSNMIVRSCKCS

Substance	active TGF-β1 in OA cartilage explant supernatants (ELISA) [1] [%]	active TGF-β1 in OA cartilage explant supernatants (ELISA) (pg/g cartilage) [1]	decrease in AP activity of F-spondin transfected, RA stimulated chick chondrocytes [2] [%]
recombinant human F-spondin (R&D systems) (from UniProt Q9HCB6 29-807) (ligand)	225	550	
LM609, integrin αvβ3 blocking antibody (Chemicon International, Cat No MAB1976Z)			50
